Data published in paper PMC2216138 (The Journal of General Physiology, 1988).
Like-named read-outs stand apart in the source and are kept apart here.

Columns and labels:
[1] = target: T1, High-conductance, Ca2+-activated K+ channel from rat skeletal muscle (rat (endogenous in skeletal muscle), UniProt Q62976 1-1209); test: single-channel recording in planar lipid bilayers
[2] = target: T1, High-conductance, Ca2+-activated K+ …; test: single-channel recording in planar lipid bilayers; remark: listed apart in the source

T1 sequence (Q62976 whole entry): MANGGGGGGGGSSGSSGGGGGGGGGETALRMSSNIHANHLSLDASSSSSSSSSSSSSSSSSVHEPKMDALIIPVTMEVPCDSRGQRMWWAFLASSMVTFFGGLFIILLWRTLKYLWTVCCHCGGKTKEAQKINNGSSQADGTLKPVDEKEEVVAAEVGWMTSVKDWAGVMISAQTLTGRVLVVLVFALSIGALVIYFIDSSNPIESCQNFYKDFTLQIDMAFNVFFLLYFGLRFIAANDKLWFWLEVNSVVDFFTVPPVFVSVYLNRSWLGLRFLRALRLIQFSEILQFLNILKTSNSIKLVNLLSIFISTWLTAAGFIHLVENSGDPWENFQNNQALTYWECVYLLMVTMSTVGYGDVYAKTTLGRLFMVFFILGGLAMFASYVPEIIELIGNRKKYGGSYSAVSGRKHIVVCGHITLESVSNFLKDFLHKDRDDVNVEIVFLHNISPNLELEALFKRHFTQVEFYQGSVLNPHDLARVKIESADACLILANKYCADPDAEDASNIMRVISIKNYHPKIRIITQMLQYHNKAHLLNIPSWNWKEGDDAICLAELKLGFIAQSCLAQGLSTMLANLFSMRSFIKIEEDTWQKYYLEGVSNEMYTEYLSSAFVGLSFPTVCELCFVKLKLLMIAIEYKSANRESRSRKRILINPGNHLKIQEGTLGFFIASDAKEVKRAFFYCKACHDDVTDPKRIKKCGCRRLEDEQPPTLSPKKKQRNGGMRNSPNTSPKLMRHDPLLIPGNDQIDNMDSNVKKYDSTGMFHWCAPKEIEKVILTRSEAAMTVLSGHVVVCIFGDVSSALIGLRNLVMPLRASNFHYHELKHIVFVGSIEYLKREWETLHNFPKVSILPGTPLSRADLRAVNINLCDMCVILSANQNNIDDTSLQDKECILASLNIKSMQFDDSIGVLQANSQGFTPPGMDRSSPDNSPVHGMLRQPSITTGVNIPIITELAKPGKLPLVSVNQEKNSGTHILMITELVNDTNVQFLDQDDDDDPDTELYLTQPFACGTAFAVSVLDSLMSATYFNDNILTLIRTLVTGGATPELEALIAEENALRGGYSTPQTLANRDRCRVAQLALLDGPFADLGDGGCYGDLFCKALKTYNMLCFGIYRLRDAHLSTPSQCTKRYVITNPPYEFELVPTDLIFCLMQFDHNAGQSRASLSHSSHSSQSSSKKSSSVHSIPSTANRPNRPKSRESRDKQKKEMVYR

QFTNVSCTTSKECWSVCQRLHNTSRGKCMNKKCRCYS (natural protein) [Charybdotoxin]
koff [1]: ~0.01 s⁻¹
koff [2]: 0.01 s⁻¹
